Legend:
[1] = tested on: E. coli LPS; test: In vivo modification of E. coli LPS by PagL expressed in E. coli BL21 Star (DE3) (Tricine-SDS-PAGE, GC/MS, ESI-MS); type: cell-based; conditions: GC/MS and ESI-MS data
Description: To LPS-containing samples 0.5 mg/ml proteinase K (end concentration) was added to the sample buffer (28). The samples were incubated for 60 min at 55° C., followed by 10 min at 95° C. to inactivate proteinase K. The samples was then diluted 10 fold by adding sample buffer, after which 2 μl of the sample were applied to a Tricine-SDS-PAGE gel (30). The bromophenol blue was allowed to run into the separating gel at 35 V, after which the voltage was increased to 105 V. After the front reached the bottom of the gel, the samples were left running for another 45 min. The gels were fixed overnight in water/ethanol/acetic acid 11:8:1 (v/v/v) and subsequently stained with silver as described (31).
LPS was isolated using the hot phenol/water extraction method (3). […]
To study whether the cloned PagL homologs were active on E. coli LPS, IPTG was added to exponentially growing E. coli BL21 Star™ (DE3) cells containing the empty vector pET-11a or the pPagL plasmids, and after various incubation periods, samples equivalent to one OD600 unit were collected and their LPS content was analyzed by Tricine-SDS-PAGE. […]
Structural Analysis of PagL-Modified LPS: to determine its fatty acid content, LPS was isolated from bacteria that were grown in the presence of 10 mM MgCl2 to suppress PhoP/PhoQ-regulated modifications of lipid A and analyzed by GC/MS. […]

[2] = tested on: B. pertussis LPS; test: Expression of PagL and PagP in B. pertussis strain Tohama, lipid A analysed by ESI-MS and Tricine-SDS-PAGE; type: cell-based; conditions: for relative abundance of lipid A molecular ions: palmitoylate: Table III total of palmitoylated species
Description: LPS was isolated using the hot phenol/water extraction method (Westphal and Jann, Methods Carbohydr. Chem. 5; 83-91, 1965) with slight modifications. In short, bacteria were grown in THIJS medium in the presence of 1 mM IPTG (end concentration) for 64 h. Cells were harvested by centrifugation and resuspended in 40 mM sodium phosphate buffer (pH 7.0) containing 5 mM EDTA. The cells were treated overnight with lysozyme at 4° C., after which an equal volume of phenol was added. The suspension was heated to 70° C., incubated for 30 min while shaking, and subsequently cooled to 10° C., after which phases were separated by centrifugation for 10 min at 8,000×g. The upper phase was collected and the extraction was repeated after adding an equal volume of distilled water to the lower phase. The two upper phases were combined, dialysed against tap water until the phenol odour disappeared, freeze-dried, and subsequently taken up in distilled water. The LPS was subsequently pelleted by centrifugation for 3 h at 150,000×g and dissolved in distilled water, after which the LPS concentration was determined by analysing the 3-hydroxytetradecanoic acid content, using a 6890 Agilent gas chromatograph, as described (Welch, Clin. Microbiol. Rev. 1991). For ESI-MS, a 200 μl aliquot of isolated LPS (50 nmol/ml) was freeze-dried and taken up in 0.1 ml 2% acetic acid. The mixture was heated for 2 h at 95° C. to hydrolyse the LPS and release the lipid A moiety. Subsequently, the mixture was cooled to room temperature and centrifuged for 10 min at 16,100×g. The pellet was washed twice in 0.1 ml double-distilled water, taken up in 0.1 ml double-distilled water, and 0.3 ml chloroform/methanol (2:1, v/v) was added. After vigorous vortexing, phases were separated by centrifugation for 10 min at 16,100×g. The […] phase was then used for structural analysis of purified lipid A by nanoelectrospray tandem MS on a Finnigan LCQ in the negative ion mode (Wilm and Mann, Anal. Chem. 1996).
To express PagP and PagL in B. pertussis strain Tohama, the pagL gene of B. bronchiseptica (pagL(Bb)) and the pagP gene of B. pertussis (pagP(Bp)) were expressed from the broad-host range low-copy number expression vector pMMB67EH. As a control, a strain expressing the pagP gene of E. coli (pagP(Ec)) was also constructed. LPS was isolated from wild-type, PagP-expressing, or PagL-expressing B. pertussis strain Tohama and analysed by Tricine-SDS-PAGE. LPS isolated from the PagL(Bb)-expressing strain appeared unaffected on the gel, whereas that from the PagP-expressing appeared potentially modified, since a band with a lower electrophoretic mobility than that of wild-type B. pertussis LPS was detected (FIG. 14). Furthermore, as compared to the PagP(Bp)-expressing strain, the modification-efficiency appeared higher in the PagP(Ec)-expressing strain (FIG. 14). To evaluate the possible LPS modifications in further detail, the lipid A moieties of the strains were analysed by ESI-MS in the negative-ion mode. […] The peak at m/z 1557 represents the characteristic penta-acylated bis-phosphate species that is typically found in B. pertussis (Caroff et al., Microbes. Infect., 1994), whereas the peak at m/z 1477 corresponds to a penta-acylated mono-phosphate species. The two remaining peaks at m/z 1307 and 1251 represent deacylated lipid A species of the molecular ion at m/z 1477, which miss the primary 3-hydroxydecanoic acid residue at the 3 position or a primary 3-hydroxytetradecanoic acid residue (either at the 2 or the 3′ position), respectively. […] Furthermore, the large majority of lipid A species are mono-phosphate forms (˜80%). […]

[3] = In vitro modification assay with refolded or membrane-localized PagL (Tricine-SDS-PAGE); type: biochemical; conditions: purified N. meningitidis LPS
Description: Refolded PagL(Pa)(−) (10 mg/ml) or cell envelopes isolated from E. coli BL21 Star™ (DE3) containing the empty vector pET-11a or the pPagL plasmids were diluted 10 fold in double distilled water. 4 μl of the diluted refolded protein or cell envelope solution was incubated in 50 mM Hepes (pH 8.0), 0.1% Triton X-100, 0.5 M NaCl, and 0.75 nmol N. meningitidis L3-LPS in a final volume of 10 μl at 37° C. for 16 h. To test whether the reaction was dependent on divalent cations, 5 mM EDTA was added into the reaction with the refolded PagL(Pa)(−). The reactions were terminated by boiling in sample buffer (28), after which the samples were treated with 0.5 mg/ml proteinase K for 1 hour at 55° C., followed by 10 min incubation at 95° C. The samples were diluted 25 fold by adding sample buffer, after which 2 μl of the samples were analysed by Tricine-SDS-PAGE (see above).

[4] = B. pertussis strain Tohama, ESI-MS

B1: PagL(Pa): PagL homolog (lipid A 3-O-deacylase) of P. aeruginosa, SEQ ID No:6 (protein, listed as Pseudomonas aeruginosa)
chain: MKKLLPLAVLAALSSVHVASAQAADVSAAVGATGQSGMTYRLGLSWDWDKSWWQTSTGRLTGYWDAGYTYWEGGDEGAGKHSLSFAPVFVYEFAGDSIKPFIEAGIGVAAFSGTRVGDQNLGSSLNFEDRIGAGLKFANGQSVGVRAIHYSNAGLKQPNDGIESYSLFYKIPI
- lipid A deacylase activity [1]: active lipid A deacylases

B2: PagL(Bb): lipid A 3-O-deacylase PagL of B. bronchiseptica, SEQ ID No. 1 (protein, listed as Bordetella sp.)
chain: MQFLKKNKPLFGIVTLALACATAQAQPTQGGVSLHYGIGDHYQRVTLNYETPTLWSHQFGGNWGRLDLTPELGASYWWADGSRSPGHVWQASAIPMFRWWTGERFYIEAGIGATVFSSTSFADKRIGSAFQFGDHIGLGFLLTPSNRIGLRYSHFSNAGIKEPNPGLDIVQLTYTYQF
- lipid A deacylase activity [1]: active lipid A deacylases
- relative content of lipid A species that miss the 3-hydroxydecanoic acid residue at their 3 position ([2]; B. pertussis strain Tohama, ESI-MS peak heights): more than 92%
- relative abundance of lipid A molecular ions: palmitoylate [2, 4]: 0.0
- lipid A 3-O-deacylase activity in B. pertussis ([2]; B. pertussis strain Tohama, pMMB67EH expression, ESI-MS): active in B. pertussis

B3: PagL(Pa)(−): P. aeruginosa PagL without its signal sequence, refolded in vitro from inclusion bodies and purified (protein, UniProt Q9HVD1 24-173, looked up)
Lipid A deacylase PagL: ADVSAAVGATGQSGMTYRLGLSWDWDKSWWQTSTGRLTGYWDAGYTYWEGGDEGAGKHSLSFAPVFVYEFAGDSIKPFIEAGIGVAAFSGTRVGDQNLGSSLNFEDRIGAGLKFANGQSVGVRAIHYSNAGLKQPNDGIESYSLFYKIPI
- in vitro deacylation of LPS in the presence of EDTA ([3]; 5 mM EDTA, FIG. 13B): deacylation of LPS was still observed
- in vitro modification of externally added LPS ([3]; 37° C., detergent-containing buffer, FIG. 13): converted into a form with a higher electrophoretic mobility

B4: PagP(Ec): palmitoyl transferase PagP of E. coli, expressed in B. pertussis as a control (protein, UniProt P37001 26-186, looked up)
Lipid A palmitoyltransferase …: NADEWMTTFRENIAQTWQQPEHYDLYIPAITWHARFAYDKEKTDRYNERPWGGGFGLSRWDEKGNWHGLYAMAFKDSWNKWEPIAGYGWESTWRPLADENFHLGLGFTAGVTARDNWNYIPLPVLLPLASVGYGPVTFQMTYIPGTYNNGNVYFAWMRFQF
- share of the total lipid A population palmitoylated ([2]; B. pertussis strain Tohama expressing PagP, ESI-MS): ~47%
- relative abundance of lipid A molecular ions: palmitoylate [2, 4]: 46.5
- modification-efficiency ([2]; Tricine-SDS-PAGE of B. pertussis LPS, compared to the PagP(Bp)-expressing strain, FIG. 14): higher

Reference: patent US8048433B2, “Deacylation of LPS in gram negative bacteria” (priority 2004, dated 2011)
